The values that follow come from patent US20200055939A1 (Genentech, published 2020).

Test [1] has as its target T1, MICA*008 on MEL-JUSO cells (human, UniProt Q29983 24-317).
T1 chain: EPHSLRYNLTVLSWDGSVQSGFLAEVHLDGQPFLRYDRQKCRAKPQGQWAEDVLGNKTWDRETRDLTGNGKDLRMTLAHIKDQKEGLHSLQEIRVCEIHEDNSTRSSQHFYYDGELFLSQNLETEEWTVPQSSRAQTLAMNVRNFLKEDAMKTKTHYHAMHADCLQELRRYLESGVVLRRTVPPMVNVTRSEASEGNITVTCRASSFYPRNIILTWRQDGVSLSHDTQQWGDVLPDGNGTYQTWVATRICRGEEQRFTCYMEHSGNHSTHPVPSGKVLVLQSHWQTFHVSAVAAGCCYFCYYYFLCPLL
The experiment in a line: cell-based or functional assay.

Test [2] deals with MICA*004 on HCC1534 cells (human, UniProt Q29983 24-383). The experiment in a line: cell-based or functional assay.
Test [3] concerns the target MICB*005 on HCC1534 cells (human). The experiment in a line: cell-based or functional assay.
The next test concerns the target T2, huMICA*002 alpha 3-his (human).
T2 construct: whole construct entry: GS, alpha 3 domain, GNS, His8; also called MICA002.His; MICA*002 alpha3 construct
T2 chain: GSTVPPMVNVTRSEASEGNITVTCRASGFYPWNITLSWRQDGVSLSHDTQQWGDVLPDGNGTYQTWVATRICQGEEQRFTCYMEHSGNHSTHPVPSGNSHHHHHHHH
The experiment in a line: SPR, Biacore 8K, antibody on Protein A chip.

For a further test, the target named is T3, huMICA*004 alpha 3-his (human).
T3 construct: whole construct entry: GS, alpha 3 domain, GNS, His8; also called MICA004.His; MICA*004 alpha3 construct
T3 chain: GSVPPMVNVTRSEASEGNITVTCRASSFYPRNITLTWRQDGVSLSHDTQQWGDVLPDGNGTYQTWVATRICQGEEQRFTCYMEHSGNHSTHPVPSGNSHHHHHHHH
The experiment in a line: SPR, Biacore 8K, antibody on Protein A chip. (In general: In SPR one partner is held on a chip, and binding of the other changes the refractive index at the surface.)

The target in another test is T4, huMICA*008 alpha 3-his (human).
T4 construct: whole construct entry: GS, alpha 3 domain (Thr204-Ser297), GNS, His8; also the construct of the FPOP experiment; also called MICA008.His; MICA*008 alpha3 construct
T4 chain: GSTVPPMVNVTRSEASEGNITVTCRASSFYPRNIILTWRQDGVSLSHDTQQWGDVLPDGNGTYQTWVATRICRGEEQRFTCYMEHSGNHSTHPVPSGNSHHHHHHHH
The test is described as follows: SPR, Biacore 8K, antibody on Protein A chip.

The target of the next test is T5, huMICB*005 alpha 3-his (human).
T5 construct: whole construct entry: GS, alpha 3 domain, GNS, His8; also called MICB005.His; MICB*005 alpha3 construct
T5 chain: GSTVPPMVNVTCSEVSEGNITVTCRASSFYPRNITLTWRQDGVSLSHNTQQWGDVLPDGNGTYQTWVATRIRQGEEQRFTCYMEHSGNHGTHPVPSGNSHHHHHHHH
The experiment in a line: SPR, Biacore 8K, antibody on Protein A chip.

The target in test [4] is T6, MICB005.His (human MICB*005 alpha 3 domain, His tagged) (human).
T6 construct: also called huMICB*005 alpha 3-his
T6 chain: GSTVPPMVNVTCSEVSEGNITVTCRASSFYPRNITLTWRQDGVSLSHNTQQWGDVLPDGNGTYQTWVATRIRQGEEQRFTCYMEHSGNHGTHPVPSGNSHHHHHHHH
The experiment in a line: SPR, antibody captured.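 Further: SPR with antibody held by surface-bound anti-Fc while His-tagged alpha three domains flow over, Kd derived by fitting a one-to-one binding model to sensograms.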

The target of test [5] is T7, MICA*008 on MEL-JUSO cells (human, UniProt Q29983 24-317).
T7 chain: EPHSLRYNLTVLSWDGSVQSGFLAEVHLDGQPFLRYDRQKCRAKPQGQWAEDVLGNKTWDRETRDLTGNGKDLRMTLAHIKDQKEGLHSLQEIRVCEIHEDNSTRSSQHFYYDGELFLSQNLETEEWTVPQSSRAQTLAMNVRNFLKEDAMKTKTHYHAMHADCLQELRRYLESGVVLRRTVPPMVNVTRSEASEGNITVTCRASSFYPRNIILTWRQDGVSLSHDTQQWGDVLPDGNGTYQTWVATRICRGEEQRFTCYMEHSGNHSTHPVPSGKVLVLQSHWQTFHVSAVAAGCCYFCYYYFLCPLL
The test is described as follows: cell-based or functional assay.

The target in test [6] is MICA*004 on HCC1534 cells (human, UniProt Q29983 24-383). The test is described as follows: cell-based or functional assay. The source holds these as a separate data set.

Where only a bound is given, the exact number is not on record here.
Wherever % Inhibition is given: test concentration or dose not given here.

B1: 15F11v5 (antibody, IgG1, V domains shown)
VH: EIQLVQSGAEVKKPGSSVKVSCKPSGYAFTSNNIYWVRQAPGQGLEWIGYIDPYIGRIIYNQQFKDRATLTVDKSTSTAYMELSSLRSEDTAVYYCSRSGERSNFDYWGQGTLVTVSS
VL: EIVLTQSPATLSLSPGERATLSCSASSSISSNYLHWYQQKPGQAPRLLIYRTSNLASGIPARFSGSGSGTDFTLTISSLEPEDFAVYYCQQGGSLPLTFGQGTKVEIK
notes: humanized variant of 15F11
One may read the % Inhibition as the drop in the measured response relative to a control, in per cent. Broadly, the Kd is the equilibrium constant for the complex coming apart. In the case of B1, the “% Inhibition” value in [1] is 62%; in test [2] it was 46%; in test [3], -35%. In addition, the Kd with huMICA*002 alpha 3-his was found to be 6.05 nM; in the test with huMICA*004 alpha 3-his, 3.11 nM; in the test with huMICA*008 alpha 3-his it was 3.2 nM; with huMICB*005 alpha 3-his, 7.8 nM.

B2: 15F11v6 (antibody, IgG1, V domains shown)
VH: EIQLVQSGAEVKKPGSSVKVSCKPSGYAFTSNNIYWVRQAPGQGLEWIGYIDPYIGRIIYNQQFKDRATLTVDKSTSTAYMELSSLRSEDTAVYYCSRSGERSNFDYWGQGTLVTVSS
VL: EIVLTQSPATLSLSPGERATLSCSASSSISSNYLHWYQQKPGQSPRLLIYRTSNLASGVPARFSGSGSGTDYTLTISSLEPEDFAVYYCQQGGSLPLTFGQGTKVEIK
notes: humanized variant of 15F11
As to B2, the “% Inhibition” value in test [1] is -8%; in [2], -14%; in test [3] it was 59%. For the same molecule, the Kd with huMICA*002 alpha 3-his is 5.47 nM; with huMICA*004 alpha 3-his, 2.91 nM; with huMICA*008 alpha 3-his, 2.94 nM; in the test with huMICB*005 alpha 3-his, 6.62 nM.

B3: 6E1.1.12 (antibody, V domains shown)
VH: QGQMQQSGAELVKPGASVKLSCKTSGFTFSDNYISWLKQKPGQSLEWIAWIYAGTGGSSYNQKFRDKAQLTVDTSSRTAYMQLSSLTTEDSAIYYCARHDYYGTSGAWFAYWGRGTLVTVSA
VL: DVLMTQTPLSLPVSLGDQASISCRSSQHIVHSNENTYLEWYLQKPGQSPKLLIYKVSNRFSGVPDRFSGSGSGTDFTLKISRVEAEDLGVYYCFQGSHVPWTFGGGTKVEIK
notes: mouse variable domains
For B3, the results for the “% Inhibition” value in [1], in test [2] and in test [3] were 31%, 34% and 58%, respectively. The Kd with huMICA*002 alpha 3-his was found to be 1.49 nM; in the test with huMICA*004 alpha 3-his, 3.95 nM; with huMICA*008 alpha 3-his, 3.72 nM; in the test with huMICB*005 alpha 3-his, 2.96 nM.

B4: 3C9.10 (antibody, V domains shown)
VH: QVQLKESGPGLVAPSQSLSITCTVSGFSLTGSGVNWVRQPPGKGLEWLGMIWGDGNTDYNSALKSRLSISKDNSKSQIFLKMNSLQTDDTARYYCARGAYYGKRWYFDVWGAGTTVTVSS
VL: DIQMTQTTSSLSASLGDRVTISCSASQGISNYLNWYQQKPDGTVKLLIYYTSSLHSGVPSRFSGSGSGTDYSLTISNLEPEDIATYYCQQYSKLPPTFGGGTKVEIK
notes: Mouse hybridoma antibody; constant regions differ by assay (hybridoma mouse IgG, recombinant human IgG1 or mouse IgG2a)
In [4], B4 showed a dissociation constant Kd of 45 nM. For the same molecule, the “% max inhibition of shedding” value in test [5] is less than 10%; in test [6], 24%. In addition, the “EC50 of shedding inhibition” value in test [6] came out at 50 µg/mL.

B5: 9C9.5.6 (antibody, V domains shown)
VH: QVQLKESGPGLVAPSQSLSITCTVSGFSLNGQGVNWVRQPPGKGLEWLGMIWGDGSTDYNSALKSRLSISKDNSRSQVFLKMNSLQTDDTARYYCARGAHYGKRWYFDVWGAGTTVTVSS
VL: DIQMTQTTSSLSASLGDRVTISCSASQNINNYLNWYQQKPHGTVKLLIYYTSSLPSGVPSRFSGSGSGTDYSLTISNLEPEDIASYYCQQYSKLPPTFGGGTKVEIK
notes: Mouse hybridoma antibody; constant regions differ by assay
In test [4], B5 returned a Kd of 11 nM. In test [5], the “% max inhibition of shedding” value is less than 10%. In [6], the “% max inhibition of shedding” value came to 44% and the “EC50 of shedding inhibition” value was determined as 3.18 µg/mL.
